Where “and” joins values, the source holds several entries; their conditions need not be identical. Equal values may be shown once. Ends that are not written are not given here. * marks the point of attachment. Dansyl = CN(C)c1cccc2c(S(=O)(=O)*)cccc12

Assay [1] addresses C2BBe1 fixed cells. Kind of assay: competition ELISA on fixed cells; vs GST-P31.
Assay [2] concerns the target C2BBe1 fixed cells. Kind of assay: competition ELISA on fixed cells; vs GST-HAX42.
For assay [3], the target named is C2BBe1 fixed cells. Description: competition ELISA on fixed cells; vs GST-PAX2.
For assay [4], the target named is C2BBe1 fixed cells (GST-P31 competition). Description: competition ELISA on fixed cells; vs GST-P31.

B1: ELAN024(P31) (peptide)
peptide: K(Dansyl)SARDSGPAEDGSRAVRLNGVENANTRKSSRSNPRGRRHPGG-NH2
On to B1, for which the IC50 in assay [1] was found to be 500 nM.

B2: ELAN021(HAX42) (peptide)
peptide: K(Dansyl)SDHALGTNLRSDNAKEPGDYNCCGNGNSTGRKVFNRRRPSAIPT-NH2
modifications: cysteine pairing not given here
For the molecule B2, the IC50 in assay [2] amounted to 5500 nM.

B3: ELAN018(PAX2) (peptide)
peptide: K(Dansyl)STPPSREAYSRPYSVDSDSDTNAKHSSHNRRLRTRSRPNG-NH2
For the molecule B3, the IC50 in assay [3] is 600 nM and 1000 nM; in assay [2] it was 230 nM.

B4: z024(P31) (peptide)
peptide: K(Dansyl)SARDSGPAEDGSRAVRLNGVENANTRKSSRSNPRGRRHPGG-NH2
B4 registered an IC50 in assay [4] of 940 nM.

B5: Z21(HAX42) (peptide)
peptide: K(Dansyl)SDHALGTNLRSDNAKEPGDYNCCGNGNSTGRKVFNRRRPSAIPT-NH2
modifications: cysteine pairing not given here
As for B5, the IC50 in assay [1] stood at 1700 nM; in assay [3], 700 nM.

The values above are taken from patent US6703362 (dated 2004).
